Reference: PMC9701387, “CDH17 nanobodies facilitate rapid imaging of gastric cancer and efficient delivery of immunotoxin” (Biomaterials Research, 2022)

B1: CDH17 domain 1-3 (human), recombinant (domain or fragment)
chain: QEGKFSGPLKPMTFSIYEGQEPSQIIFQFKANPPAVTFELTGETDNIFVIEREGLLYYNRALDRETRSTHNLQVAALDANGIIVEGPVPITIKVKDINDNRPTFLQSKYEGSVRQNSRPGKPFLYVNATDLDDPATPNGQLYYQIVIQLPMINNVMYFQINNKTGAISLTREGSQELNPAKNPSYNLVISVKDMGGQSENSFSDTTSVDIIVTENIWKAPKPVEMVENSTDPHPIKITQVRWNDPGAQYSLVDKEKLPRFPFSIDQEGDIYVTQPLDREEKDAYVFYAVAKDEYGKPLSYPLEIHVKVKDINDNPPTC
notes: Cadherin-17 (CDH17, LI-cadherin), human, extracellular cadherin domains 1-3; soluble protein of about 40 kD; the supplementary methods (Additional file 1) may hold them; also called extracellular domain 1-3 of CDH17; CDH17 protein; source: E. coli BL21 (DE3), purified (Ni-NTA, Superdex gel filtration)

What was measured:
[1] = target: B1; assay: SPR; format and conditions not told in the text shown; details: both partners purified
E8-PE38 immunotoxin = E8-PE38 immunotoxin (alpaca (Lama pacos) | Pseudomonas …); assay: as above; details: both partners purified

Row | Binder | Kd [1] [nM] | Kd (E8-PE38 immunotoxin) [nM]
1 | E8 nanobody (VHH, from a naive alpaca VHH phage library; shorter CDR3 than A1; HA tag joined to the C-terminus by a GA linker; a cysteine is attached at the end of the HA tag; The purified protein was confirmed with His tag and HA tag antibodies; also called CDH17 nanobody E8; naked E8 nanobody; source: E. coli (pColdII vector), purified (Ni-NTA); not shown: HA, C-terminal, kept) VHH: AVQLVESGGGLVQPGGSLRLSCTASGSILSFNSMGWHRQAPGRQRELVAGISIHKTSSNYANFVKGRFTISRDDAKNTVYLQMNSLKPEDTAVYYCAAVQRGQSRISYWGQGTQVTVSS | 70.3 | –
2 | A1 nanobody (VHH, from a naive alpaca VHH phage library; HA tag joined to the C-terminus by a GA linker; a cysteine is attached at the end of the HA tag; The purified protein was confirmed with His tag and HA tag antibodies; also called CDH17 nanobody A1; source: E. coli (pColdII vector), purified (Ni-NTA); not shown: HA, C-terminal, kept) VHH: AVQLVESGGGLVQAGDSLRLSCAASGRTFSSNGMGWFRQAPGKGREFVAAISWNAGTTLYTDSVKGRFTISRDNAKNTVYLQMNSLKPEDTAIYYCAAREYYGGSYYPSREYEYGYWGQGTQVTVSS | 377 | –
3 | B1 | – | 86.9
